In a protein production outcome set (Wang et al. 2014):

Experiment: label from the status in PepcDB records

Sequence: MEREEIIERFLKFFREYAEEGEEPLYMGKIKDLLTITPKRSIVINWMHLNSYDPELAEEVIENPEECILAAEDAIQIILKEDFLREDVPKIHARFHNLPKTLMVKEVGAEHINKLIQVEGVVTRVTEIKPFVSVAVFVCKDCGHEMVVPQKPYEGFVAVKKCEQCGSKNVQLDVEKSKFVNFQMFRIQDRPESLRGGQMPRFIDGILLDDIVDTAMPGDRVIVVGILRVIQEKREKVPTFKKVIEVNHIEPISKELEELEISPEDEQKIRELAKRKDIVSAIVDSIAPAIYGYKEVKKGIALALFGGVSRTLPDGTRLRGDIHVLLVGDPGVAKCVDYDTEVLLGDGRKRKIGEIVEEAIKKAEKEGKLGRVDDGFYAPINLELYALDVRTLKVRKVKADIAWKRTTPEKMLRIRTKRGREIRVTPTHPFFTLEEGRIKTKKAYELKVGEKIATPREEAPEAEIFWDEVVEIEEYKPNNSWVYDLQVPEHHNFIANGIFVHNSQLLRYVANLAPRAIYTSGKSSSAAGLCVAPDTLINTDNGRVEIGKFVEEWMKEVGEISEEGISYAPCFRKVETFKDGKIVESPIRRVWKLRAPKKLVRIKTENGRSIALTRETKLLTINDGELSWVEAGEVKVGTYVGTVKSEKDVIPGAGKTIRDVSKLYNMEMEVKDYLTREEVRKAIEKLEEIMNPMNIKIPGVQESYEELLRKLETTNDERVRNETLILLSDVSDAHELAKEKIEKIKEIVNSEVHWEKVTEVGEVDGVEYVYDLTVEGSHNFVANGFIVHNTAAVVRDEFTGGWVLEAGALVLADGGYALIDELDKMSDRDRSVIHEALEQQTISLSKAGITATLNARTTVIAAANPKHGRFNRMKRVSEQIDLPPTLLSRFDLIFVLMDEPDEKVDSEIARHILKVRRGESEVVTPKIPHELLRKYIAYARKNIHPVISEEAMEEIEKYYVKMRRSAKKSSGDEIKPIPITARQLEALIRLSEAHARMRLSPIVTREDAREAIKLMEYTLKQIAVDEAGQLDVTILEVGQSARKLSKVERILDIVEKLERTSEKGAKIDDILEEAAKFGIEKSEAREILEKLLEKGQIYMPENGYYKTV
- protein production: failed

Sequence: MERIAMNPLMQQAIQFANDHETAWDRSVRGNFGVHLDDPPPWNRLLGPVHDRGPVSGVVVVDGQTLASWGEPERADLTFSVAKLYLSILAGVAHDRGLLPDVDEPVGRRVPGIGFDAGRNARITWRHLLQQTSEWEGERFGVPDQADRYRAVAFGIPPDGRKGDARPLQEPGTYWEYNDVRINQLSYALLHLFRRPLPEVFREAVTRPLGASEDWQWVGYDNAWVDIDGVRMPSVPGGTHWGGGMSISARDQALIGRMLLDEGRAADGRQVLSPAWIQAMRTPCDIAPYYGYLIWLNHERKVFPSVPASSFFGIGAGSSFTWVEPERRMVVIVRWLDAAYADALFGRILAAVDAHRAGLEHHHHHH
- protein production: failed

Sequence: MERIRWLYGFLACILIAILLAPLQIMAQGEFRTSDQPLVYYIPVEQEVERGLEAFLQRSLDSAVEEGADHIVLEINTPGGRVDAAGNMARALRETDIPITAYVIDQALSAGAYIALNADEIVMAPGSTMGSAAVIDSAGNAADEKAQSYWLAEMRNAAEYNDRDPKYALAMADRSIEIPELDISNEELLTLTASQALEVNYAEAIASNRAELLEHLQIDNAFEQEMEVSFAEKLARFVTNPLIIPILLSIGSLGLVLELYSPGFGVPGIMGISALLLFFFGHLIAGFAGYEAMILFIAGFLLILIEVFMPGFGLFGILGIAGMIGGMLLASFSTAWMLVSLGISAVVTTVVAIITFRYFGSRGPWKKMILTESTSSEKGYITNETRQELVGLIGQSLTPLRPSGSGLFGEERLDVVSEGGYIEQGRKIKVVSTSGSRIVVRETDE
- protein production: failed

Sequence: MERKKITFDSFIRGSICCALIVGLLILFKRLSGVLLPFFVAWLIAYMIYPLVKFFQYKLRFKSRIISIFCALFSITIVGISLFYLLVPPMLAEMGRMNDLLVTYLTNGAYSSGTVPPTLSEFIHKHIDLQALNRILSEENIMNTIKETVPKLWALVAESINILFSVFASFIILLYVVFILLDYESIAEGWLHLLPGKYRTFASNLVNDIQDGMNRYFRGQAFVAFCVGILFSIGFLIIDFPMAIALGLFIGALNMVPYLQIIGFLPTIVLAILKAADTGENFWVILAGALIVFIVVQAIQDGFLVPRIMGKITGLNPAIILLSLSIWGSLLGMLGMIIALPLTTLMLSYYQRFIINKEKIKYDRHEVTDNQSAEENTKK
- protein production: failed

Sequence: MERLTSPPRLMIVSDLDETMVDHHKDPENLALLRFNSLWEDAYRHDSLLVFSTGRAQTMYKKLRKEKPLLTPDVIITSVGTEIAYGNSMVPDDNWVEILNKKWDRGIVQEETSKFPELTLQGETEQRPHKLSFNIDKSKVKAVTKELSPRLEKRGVDVKFIFSGGNAFDVLAKGGGKGQALAYLLKKLKTEGKLPINTLACGDSGNDTELFTIPNVYGVMVSNAQEELLEWYAENAKDNANIIHASERCAGGITQAIGHFKLGPNLSPRDVSDFLECKADNVNPGHEVVKFFLFYERWRRGEVENCTTYTSSLKASCHPSGVFVHPSGAEKSLRDTIDELGKYYGDKKGKKFRVWTDQVLATDTTPGTWIVKLDKWEQTGDERKCCTTTVKFTSKEGEGFVWEHVQQIWSEETEIKDDSNWII
- protein production: failed

Sequence: MERNVTLDFVRGVAILGILLLNISAFGLPKAAYLNPAWYDAITPQDAWTWAFLDLIGQVKFLTLFALLFGAGLQMLLPRGRRWIQSRLTLLVLLGFIHGLLFWDGDILLAYGLVGLGVLLLLGLISDSQTSRAWTPDASAILYEKYWKLHGGVEAISNRADGVGNSLLALGAQYGWQLAGMMLIGAALMRSGWLKGQFSLRHYRRTGFVLVAIGVTINLPAIALQWQLDWAYRWCAFLLQMPRELSAPFQAIGYASLFYGFWPQLSRFKLVLAIACVGRMALTNYLLQTLICTTLFYHLGLFMHFDRLELLAFVIPVWLANILFSVIWLRYFRQGPVEWLWRQLTLRAAGPAISKTSR
- protein production: failed

Sequence: MERPLESYKKEAAHAAIAYVQDGMVVGLGTGSTARYAVLELARRLREGELKGVVGVPTSRATEELAKREGIPLVDLPPEGVDLAIDGADEIAPGLALIKGMGGALLREKIVERVAKEFIVIADHTKKVPVLGRGPVPVEIVPFGYRATLKAIADLGGEPELRMDGDEFYFTDGGHLIADCRFGPIGDPLGLHRALLEIPGVVETGLFVGMATRALVAGPFGVEELLP
- protein production: not failed

Sequence: MERQDDPDAIQRLLVPTDLSASALRAFRHAVALARLYDAAIDVLHVIESVPYVALTPTDRLSLGATTLLERRGRRRLRAFLQEGEAAGVQVQSHIMRGAAADQISRFANQGDVDLMVLSAHGSDAEEGPLGPVGTRVLGRVTRPLFLVRASGPSLLGPPDDAA
- protein production: failed

Sequence: MERSEEEIENLWKLQSEVKQRSESVKSIITELEIERGTLKVRALKLKEDSDVLTTWVEMNYLKLTSMDMGRIEEMFEIESEVEGLAGDDAIEDVLRVLEEAAERGELEIGSYLKQVRVLAREQFFLKHLSSFKTQNFHI
- protein production: failed

Sequence: MERVQRLRLTFGKTGEMTLLSHLDLLRLFERAVRRAHLPIAFSGGFHPSPRISTASALPLGVTSYGEIVDLEFYREVDAQTVLEQLRQQLPQEIPLYGCEVVPLSEPAASQALRAATYELLIRTPEPLERETWEQWLETLRATPEILYELTTKSGKTLEHHHHHH
- protein production: failed

Sequence: MESEKKIAHEIGGVKNDALRFGLHGVKSNIIGSHPLESSYESEKKSKEALKRTVIAHAYGTALPLKMDMDRQILSRFQRPPGPIPSSMLGLEVYTGAVDDFGFEDYLNDPRDSETFKPVDFHHGMEVRLGISKGPIYPSFM
- protein production: failed

Sequence: MESFNTFVRQYNDQHAEAIAKGELEALAESSSAFIEKASGIKSRFVMNKEGILDPQRMVPYLPERSNDEWSILCEMAVAAAREALQRAGRSAADIDGVIVACSNLQRAYPAIAVEVQAALGIQGYGYDMNVACSSATFGIQAATTAIQTGQARAILMVNPEICTGHLNFRDRDSHFIFGDACTAVIVERADLAVSKHQFDIVSTRLLTQFSNNIRNNFGFLNRADESGIGKRDKLFVQEGRKVFKDVCPMVAELIGEHLAANEIQVAEVKRFWLHQANLNMNLLITRKLLGRDAEAHEAPVILDSYANTSSAGSVIALHKHQDDLPSGAIGVLSSFGAGYSIGSVILRKH
- protein production: failed

Sequence: MESGKREQVELMFNNISPKYDLLNRVLSLGIDKIWRKQALNLLKQDKPAHILDVATGTADLAIEAATRLKPTSVVGIDIAEDMLQIGRGKIAKKNLDKIIRLEKGDSEKINFPDNTFDAVIVSFGVRNFEHLEIGLAEIHRVLKPAGSIMVLEFSKPQNAPFKQVYQFYFKNILPTVGKLISKDSAAYTYLPDSVNAFPDGKAFCSILEKTGFTIKHYKPYTFGVCTAYVGKLEHHHHHH
- protein production: failed

Sequence: MESSFSFGVILAVLASLIIATNTLVAVAVLLLIHKNDGVSLCFTLNLAVADTLIGVAISGLLTDQLSSPSRPTQKTLCSLRMAFVTSSAAASVLTVMLITFDRYLAIKQPFRYLKIMSGFVAGACIAGLWLVSYLIGFLPLGIPMFQQTAYKGQCSFFAVFHPHFVLTLSCVGFFPAMLLFVFFYCDMLKIASMHSQQIRKMEHAGAMAGGYRSPRTPSDFKALRTVSVLIGSFALSWTPFLITGIVQVACQECHLYLVLERYLWLLGVGNSLLNPLIYAYWQKEVRLQLYHMALGVKKVLTSFLLFLSARNCGPERPRESSCHIVTISSSEFDG
- protein production: failed

Sequence: MESWLFLLLIALIAFVAKNQSLLIASVVVLALKALPNSAKIMSWLSDKGINLGVTIISITILVPIATGQIGLKDLIQSFKTPMGWLGILCGILVAVLSSKGVGLINQSPEITVALVFGTILGVVFLKGIAAGPIIASGMMYVIITTFQAFQH
- protein production: failed

Sequence: MESYSQRQDHELQALEAIYGSDFQDLRPDARGRVREPPEINLVLYPQGLAGEEVYVQVELRVKCPPTYPDVVPEIDLKNAKGLSNESVNLLKSHLEELAKKQCGEVMIFELAHHVQSFLSEHNK
- protein production: not failed

Sequence: METDPDYSMVLLTENFPPYNMAINGKNFAQEDNIDGIAVDIVREMFKRAGIKYSLTLRFPWDRIYKLALEKPGYGVFVTARLAEREDKFKWVGPIGPDDWVLLAKGDSPITLGSLDEAKKYRIGAYKGDAIAEFLGKNGFEADLEHHHHHH
- protein production: failed

Sequence: METKGEPYSEPCEFFNSILTGSVSRKMRLPRMGIRNFIGTSRLHFAKRAFHAQAAVDEDSRYGALLSIKEYPPFTGPGMLDGLLQVNHEFILTQSFTLADKPIAQERITRLQRQIRASDEAGTSVESDINFALDSMLNQEAVFGFHHFSLLCISRDLEGLSRCVSELGACLTDMNINWLREDLNLEAAFWAQLPGNHSYIARKAMLSSSNFSGLSSMHNFASGQAERTHWGLPITILETTSQTPYWFNFHRRDIGHFTVTGPTGSGKTVGLSFLLAQAMRVSPTPRAVFFDKDRGAEIFVRAIGGSYEILSPGTPTGFNPLQLENTGPNREFLQRLLKAMLGGRDRRDFTQEDEDIIERAVVRLMEEPAQQRNLTNLGNLLMGRARADANDLYSRLRPWTEGEKAWLFNAPHDVLSFSGRTVFGFDMTSILGNEELRTPALMYLYHRLDELLDGNPVMFFMDEGWQLLLDETFSAFIVDKMKTIRKLNGIVGFGTQSAADIAKSKVSHTLIEQSSTNIHFPNPRADEESYIKRFGLTVKEYNFIKNTPPEKRTFLIKHGNDSVIARLDLSSMPDLVKVLSGRKETIEECAALREQYGDEPENWLAKFCGWENAELEHHHHHH
- protein production: not failed
